Experimental data as given in the supplement of paper PMC10567573.

B1: PRPH (parent)
chain: DEIEFLKKLHEEELRDLQVSVESQ
B2: CCDC6 (parent)
chain: TLFKKIQALQKEKETLAVNYEKEE

Variants of: B1
Experiment: protein stability index of a GFP-peptide fusion (GPS, HEK-293T) (PSI 1-6); higher = more stable
Conditions: c terminus: a fixed tail appended
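Further: lentivirally expressed fusions sorted by FACS into six bins by GFP to DsRed ratio, PSI derived from sequencing read proportions per bin multiplied by bin number.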

Row | Variant | protein stability index
1 | DEIEFLKKLHEEELRDLQVSCESQ [V21C] | 4.98
2 | DEIEFLKKLHEEELRDLQVSDESQ [V21D] | 5.43
3 | DEIEFLKKLHEEELRDLQVSEESQ [V21E] | 5.81
4 | DEIEFLKKLHEEELRDLQVSFESQ [V21F] | 4.43
5 | DEIEFLKKLHEEELRDLQVSGESQ [V21G] | 4.92
6 | DEIEFLKKLHEEELRDLQVSHESQ [V21H] | 5.09
7 | DEIEFLKKLHEEELRDLQVSIESQ [V21I] | 4.13
8 | DEIEFLKKLHEEELRDLQVSKESQ [V21K] | 5.06
9 | DEIEFLKKLHEEELRDLQVSLESQ [V21L] | 4.71
10 | DEIEFLKKLHEEELRDLQVSMESQ [V21M] | 4.45
11 | DEIEFLKKLHEEELRDLQVSNESQ [V21N] | 5.29
12 | DEIEFLKKLHEEELRDLQVSPESQ [V21P] | 4.95
13 | DEIEFLKKLHEEELRDLQVSQESQ [V21Q] | 4.39
14 | DEIEFLKKLHEEELRDLQVSRESQ [V21R] | 4.39
15 | DEIEFLKKLHEEELRDLQVSSESQ [V21S] | 4.75
16 | DEIEFLKKLHEEELRDLQVSTESQ [V21T] | 4.96
17 | DEIEFLKKLHEEELRDLQVSWESQ [V21W] | 4.36
18 | DEIEFLKKLHEEELRDLQVSYESQ [V21Y] | 4.07
19 | DEIEFLKKLHEEELRDLQVSVASQ [E22A] | 4.47
20 | DEIEFLKKLHEEELRDLQVSVCSQ [E22C] | 4.93
21 | DEIEFLKKLHEEELRDLQVSVDSQ [E22D] | 4.99
22 | DEIEFLKKLHEEELRDLQVSVFSQ [E22F] | 3.38
23 | DEIEFLKKLHEEELRDLQVSVGSQ [E22G] | 4.3
24 | DEIEFLKKLHEEELRDLQVSVHSQ [E22H] | 4.5
25 | DEIEFLKKLHEEELRDLQVSVISQ [E22I] | 3.29

Row | Variant | protein stability index
26 | DEIEFLKKLHEEELRDLQVSVKSQ [E22K] | 4.69
27 | DEIEFLKKLHEEELRDLQVSVLSQ [E22L] | 3.88
28 | DEIEFLKKLHEEELRDLQVSVMSQ [E22M] | 4.27
29 | DEIEFLKKLHEEELRDLQVSVNSQ [E22N] | 4.48
30 | DEIEFLKKLHEEELRDLQVSVPSQ [E22P] | 5.25
31 | DEIEFLKKLHEEELRDLQVSVQSQ [E22Q] | 4.37
32 | DEIEFLKKLHEEELRDLQVSVRSQ [E22R] | 4.3
33 | DEIEFLKKLHEEELRDLQVSVSSQ [E22S] | 4.74
34 | DEIEFLKKLHEEELRDLQVSVTSQ [E22T] | 4.72
35 | DEIEFLKKLHEEELRDLQVSVVSQ [E22V] | 4.18
36 | DEIEFLKKLHEEELRDLQVSVWSQ [E22W] | 3.29
37 | DEIEFLKKLHEEELRDLQVSVYSQ [E22Y] | 3.75
38 | DEIEFLKKLHEEELRDLQVSVEAQ [S23A] | 4.04
39 | DEIEFLKKLHEEELRDLQVSVECQ [S23C] | 4.55
40 | DEIEFLKKLHEEELRDLQVSVEDQ [S23D] | 5.04
41 | DEIEFLKKLHEEELRDLQVSVEEQ [S23E] | 4.67
42 | DEIEFLKKLHEEELRDLQVSVEFQ [S23F] | 4.36
43 | DEIEFLKKLHEEELRDLQVSVEGQ [S23G] | 5.13
44 | DEIEFLKKLHEEELRDLQVSVEHQ [S23H] | 4.94
45 | DEIEFLKKLHEEELRDLQVSVEIQ [S23I] | 3.8
46 | DEIEFLKKLHEEELRDLQVSVEKQ [S23K] | 4.5
47 | DEIEFLKKLHEEELRDLQVSVELQ [S23L] | 4.54
48 | DEIEFLKKLHEEELRDLQVSVEMQ [S23M] | 3.96
49 | DEIEFLKKLHEEELRDLQVSVENQ [S23N] | 5.04
50 | DEIEFLKKLHEEELRDLQVSVEPQ [S23P] | 4.71

Row | Variant | protein stability index
51 | DEIEFLKKLHEEELRDLQVSVEQQ [S23Q] | 4.11
52 | DEIEFLKKLHEEELRDLQVSVERQ [S23R] | 4.62
53 | DEIEFLKKLHEEELRDLQVSVETQ [S23T] | 4.95
54 | DEIEFLKKLHEEELRDLQVSVEVQ [S23V] | 4.59
55 | DEIEFLKKLHEEELRDLQVSVEWQ [S23W] | 3.45
56 | DEIEFLKKLHEEELRDLQVSVEYQ [S23Y] | 4.71
57 | DEIEFLKKLHEEELRDLQVSVESA [Q24A] | 4.57
58 | DEIEFLKKLHEEELRDLQVSVESC [Q24C] | 3.37
59 | DEIEFLKKLHEEELRDLQVSVESD [Q24D] | 4.46
60 | DEIEFLKKLHEEELRDLQVSVESE [Q24E] | 4.57
61 | DEIEFLKKLHEEELRDLQVSVESF [Q24F] | 3.91
62 | DEIEFLKKLHEEELRDLQVSVESG [Q24G] | 4.48
63 | DEIEFLKKLHEEELRDLQVSVESH [Q24H] | 4.52
64 | DEIEFLKKLHEEELRDLQVSVESI [Q24I] | 4.35
65 | DEIEFLKKLHEEELRDLQVSVESK [Q24K] | 4.65
66 | DEIEFLKKLHEEELRDLQVSVESL [Q24L] | 4.66
67 | DEIEFLKKLHEEELRDLQVSVESM [Q24M] | 4.64
68 | DEIEFLKKLHEEELRDLQVSVESN [Q24N] | 4.92
69 | DEIEFLKKLHEEELRDLQVSVESP [Q24P] | 3.96
70 | DEIEFLKKLHEEELRDLQVSVESR [Q24R] | 4.22
71 | DEIEFLKKLHEEELRDLQVSVESS [Q24S] | 4.26
72 | DEIEFLKKLHEEELRDLQVSVEST [Q24T] | 4.76
73 | DEIEFLKKLHEEELRDLQVSVESV [Q24V] | 4.23
74 | DEIEFLKKLHEEELRDLQVSVESW [Q24W] | 3.85
75 | DEIEFLKKLHEEELRDLQVSVESY [Q24Y] | 3.64

Variants of: B2
Experiment: as above
Conditions: c terminus: a fixed tail appended

Row | Variant | protein stability index
76 | ALFKKIQALQKEKETLAVNYEKEE [T1A] | 3.85
77 | CLFKKIQALQKEKETLAVNYEKEE [T1C] | 3.34
78 | DLFKKIQALQKEKETLAVNYEKEE [T1D] | 4.01
79 | ELFKKIQALQKEKETLAVNYEKEE [T1E] | 3.67
80 | FLFKKIQALQKEKETLAVNYEKEE [T1F] | 2.64
81 | GLFKKIQALQKEKETLAVNYEKEE [T1G] | 3.73
82 | HLFKKIQALQKEKETLAVNYEKEE [T1H] | 3.48
83 | ILFKKIQALQKEKETLAVNYEKEE [T1I] | 2.69
84 | KLFKKIQALQKEKETLAVNYEKEE [T1K] | 3.06
85 | LLFKKIQALQKEKETLAVNYEKEE [T1L] | 2.38
86 | MLFKKIQALQKEKETLAVNYEKEE [T1M] | 2.51
87 | NLFKKIQALQKEKETLAVNYEKEE [T1N] | 4.12
88 | PLFKKIQALQKEKETLAVNYEKEE [T1P] | 3.71
89 | QLFKKIQALQKEKETLAVNYEKEE [T1Q] | 2.84
90 | RLFKKIQALQKEKETLAVNYEKEE [T1R] | 3.04
91 | SLFKKIQALQKEKETLAVNYEKEE [T1S] | 2.92
92 | VLFKKIQALQKEKETLAVNYEKEE [T1V] | 3.12
93 | WLFKKIQALQKEKETLAVNYEKEE [T1W] | 1.88
94 | YLFKKIQALQKEKETLAVNYEKEE [T1Y] | 3.01
